Among the data in PMC9161685 are stoichiometry N values, retold here.

The test concerns the target SARS-CoV-2 main protease (M^pro) triple mutant (Cys85Ser|Cys156Ser|Cys300Ser), (His)6-tagged (SARS-CoV-2). Kind of test: SEC-MALS.

For “SARS-CoV-2 main protease (M^pro) triple mutant (Cys85Ser|Cys156Ser|Cys300Ser), (His)6-tagged (enzyme)”, the stoichiometry N – broadly, the number of molecules, sites or subunits per partner or assembly – was found to be 2.
